Measured values published in publication PMC12221297, “Negative regulation of miRNA sorting into EVs is mediated by the capacity of RBP PCBP2 to impair the SYNCRIP-dependent miRNA loading”.

Target: PCBP2 recombinant (Origene TP522190) (Mus musculus, UniProt Q61990 1-362)
Assay: pull-down; EMSA: REMSA binding buffer (LightShift kit), 4 ug extract, 0.5 pmol biotin-RNA, 30 min room temperature, native 6% PAGE 0.5x TBE; pull-down: streptavidin beads
Settings: protein: commercial; label: 5' biotin

Sequence of PCBP2 recombinant (Origene TP522190) (Q61990 whole entry): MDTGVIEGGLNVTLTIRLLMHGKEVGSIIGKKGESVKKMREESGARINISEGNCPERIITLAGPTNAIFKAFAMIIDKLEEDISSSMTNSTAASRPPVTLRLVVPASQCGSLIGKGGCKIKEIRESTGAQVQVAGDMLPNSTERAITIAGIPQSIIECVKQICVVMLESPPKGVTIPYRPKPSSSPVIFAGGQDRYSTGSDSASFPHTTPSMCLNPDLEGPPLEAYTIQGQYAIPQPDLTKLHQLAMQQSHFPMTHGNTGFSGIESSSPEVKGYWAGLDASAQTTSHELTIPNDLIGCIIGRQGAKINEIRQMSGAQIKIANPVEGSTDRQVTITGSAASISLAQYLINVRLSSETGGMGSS

B1: miR-155-3p WT (Table 1: miR-155b-3p WT) (ssRNA)
RNA: CUCCUACCUGUUAGCAUUAAC
- binding result: binds
